Laboratory results as given in patent CN115028722A (BIOCELLS BEIJING BIOTECH CO LTD, dated 2022).

B1: 鼠源抗TSLP单克隆抗体10D9-M-432 (antibody, V domains shown)
VH: VNCKESGPQLVRPGASVKISCKASAYSFTTYWMHWVKQRPGQGLEWIGLIDPSDSETTLNQKFKDKATLTVDKSSSTAYMQLTSPTSEDSAVYYCARSLDGYFDYWGQGTTVTVSS
VL: DIDLTQSPASLSASVGETVTITCRAGENIYSYLAWYQQKQGKSPQLLVYNAKILAESVPSRFSGSGSGTQFSLKINSLQPEDFGIYSCQHHYDTPWTFGGGTKLE
notes: Mouse hybridoma monoclonal antibody
B2: 鼠源抗TSLP单克隆抗体9F8-1-25 (antibody, V domains shown)
VH: VQLQQSGPQLVRPGASVKISCKASGYSFTTYWMHWVKQRPGQGLEWIGIIDPSDSETTLNQKFKDKATLTVDKSSSTAYIQLSSPTSEDSAVYYCTRSLDGYFDYWGQGTTVTV
VL: DIDLTQSPASLSASVGETVTITCRAGENIYSYLAWYQQKQGKSPQLLVYNAKILAESVPSRFSGSGSGTQFSLKINSLQPEDFGIYSCQHHYDTPWTFGGGTKLE
notes: as for B1
B3: 鼠源抗TSLP单克隆抗体5F10-2-25 (antibody, V domains shown)
VH: ELQQSGPQLVRPGASVKISCKASGYSFTSYWMHWVKQRPGQGLEWIGLIDPTDSEISLSQKFKDKATLTVDKLSSTAHMQLSSPTSEDSAVYYCARSLDGFFDQWGQGTTVTV
VL: DIDLTQSPASLSASVGETVTITCRTSENIYSYLAWYQQKQGKSPQLLVYNAKSLAEGVPSRFSGSGSGTQFSLKINSLQPEDFGSYYCQHHYDTPWTFGGGTKLENKT
notes: as for B1
B4: Tezepelumab(安进和阿斯利康合作开发抗体) (antibody, V domains shown)
VH: QMQLVESGGGVVQPGRSLRLSCAASGFTFRTYGMHWVRQAPGKGLEWVAVIWYDGSNKHYADSVKGRFTITRDNSKNTLNLQMNSLRAEDTAVYYCARAPQWELVHEAFDIWGQGTMVTVSS
VL: SYVLTQPPSVSVAPGQTARITCGGNNLGSKSVHWYQQKPGQAPVLVVYDDSDRPSWIPERFSGSNSGNTATLTISRGEAGDEADYYCQVWDSSSDHVVFGGGTKLTVLG
B5: 抗TSLP人源化单克隆抗体M432-69H13L (antibody, human IgG2, lambda, V domains shown)
VH: EVQLVQSGAEVKKPGATVKISCCASAYSFTTYWMHWVQQAPGKGLEWMGLIDPSDSETTLNQKFKDRVTLTVDKSTDTAYMELSSLRSEDTAVYYCARSLDGYFDYWGQGTTVTVSS
VL: DIQLTQSPSSLSASVGDRVTITCRAGENIYSYLAWYQQKPGKAPKLLVYNAKILAEGVPSRFSGSGSGTDFTLTISSLQPEDFATYYCQHHYDTPWTFGGGTKLTVLG
B6: 抗TSLP人源化单克隆抗体5F10-69H13L (antibody, human IgG2, lambda, V domains shown)
VH: EVQLVQSGAEVKKPGATVKISCCASGYSFTSYWMHWVQQAPGKGLEWMGLIDPTDSEISLSQKFKDRVTLTVDKSTDTAYMELSSLRSEDTAVYYCARSLDGFFDQWGQGTTVTVSS
VL: DIQLTQSPSSLSASVGDRVTITCRAGENIYSYLAWYQQKPGKAPKLLVYNAKILAEGVPSRFSGSGSGTDFTLTISSLQPEDFATYYCQHHYDTPWTFGGGTKLTVLG
B7: 抗TSLP人源化单克隆抗体9F8-46H13L (antibody, human IgG2, lambda, V domains shown)
VH: QVQLVQSGAEVKKPGASVKVSCCASGYSFTTYWMHWVRQAPGQGLEWMGIIDPSDSETTLNQKFKDRVTLTVDKSTSTAYMELSSLRSEDTAVYYCTRSLDGYFDYWGQGTTVTVSS
VL: DIQLTQSPSSLSASVGDRVTITCRAGENIYSYLAWYQQKPGKAPKLLVYNAKILAEGVPSRFSGSGSGTDFTLTISSLQPEDFATYYCQHHYDTPWTFGGGTKLTVLG

What was measured:
[1] = molecular target: T1, 包含有His标签的重组人源TSLP蛋白(rhTSLP-His) (human); assay: ELISA, rhTSLP-His coated at 100 ng/well
T1 construct: also called rhTSLP-His重组蛋白; rhTSLP-His蛋白

[2] = molecular target: T1, 包含有His标签的重组人源TSLP蛋白(rhTSLP-His); assay: cell ELISA: antibody blocks binding of 100 ng rhTSLP-His to hTSLPR/hIL-7Rα-293T/17 cells
[3] = molecular target: T1, 包含有His标签的重组人源TSLP蛋白(rhTSLP-His); assay: ELISA as in Example 6, rhTSLP-His coated
[4] = molecular target: T1, 包含有His标签的重组人源TSLP蛋白(rhTSLP-His); assay: cell ELISA: antibody blocks binding of rhTSLP-His to hTSLPR/hIL-7Rα-293T/17 cells

| Binder | EC50 [1] [nM] | IC50 [2] [µg/mL] | EC50 [3] [nM] | IC50 [4] [µg/mL] |
| --- | --- | --- | --- | --- |
| B1 | 8.16 | 12 | – | – |
| B2 | 11.4 | 10.7 | – | – |
| B3 | 12.4 | 13.4 | – | – |
| B4 | 2.93 | 6.22 | 1.8 | 8.93 |
| B5 | – | – | 4.05 | 4.35 |
| B6 | – | – | 31.6 | 7.57 |
| B7 | – | – | 9.52 | 4.05 |
